Patent US20160185832A1 (University of Pennsylvania, published 2016)
Values belong to the binder of their own block, whether it stands above or below them.

Columns and labels:
[1] = target: T1, pure, pre-polymerized, taxol-stabilized microtubules of bovine tubulin (Cytoskeleton) (bovine, UniProt P81947 1-451; Q6B856 1-445, limits assumed); experiment: in vitro microtubule co-sedimentation, percent of construct in the microtubule pellet (FIG. 4D)
T1 construct: Polymer of alpha/beta tubulin dimers, polymerized with GTP and stabilized with 10 µM taxol; also called MT; MTs
Experimental: (§1) Crude TNT T7 reaction products were diluted 1:1 in BRB80 supplemented with 1 mM GTP and 10 μM taxol. The diluted products were then incubated at 30° C. for 30 minutes in either the presence or absence of pure, pre-polymerized microtubules. Reactions were then centrifuged through a 40% sucrose cushion at 48,000×g for 30 minutes, the supernatant was collected, and the pellet washed once with warm BRB80 and resuspended in 1×SDS PAGE sample buffer. Both fractions were subjected to SDS-PAGE and transferred to nitrocellulose. The presence of tubulin in the pellets was confirmed by Ponceau staining, and GFP-tagged CEP290 constructs were detected by immunoblotting.

[2] = target: microtubule network of cultured human cells (hTERT-RPE1, 293T) (human, UniProt P68363 1-451; P07437 1-444); experiment: cell-based or functional assay
[3] = target: T1, pure, pre-polymerized, taxol-stabilized …; experiment: microtubule co-sedimentation, 1 nM purified 6×His truncation M with increasing microtubules, Coomassie gel, non-linear regression
Experimental: For the direct microtubule binding assay, 1 nM of recombinantly expressed and purified 6×His tagged CEP290 truncation M was incubated at 30° C. for 30 minutes with increasing amounts of pure, prepolymerized microtubules. Reactions were centrifuged and subjected to SDS-PAGE as above, and tubulin and CEP290 truncation M were detected by Coomassie blue staining.

[4] = target: T1, pure, pre-polymerized, taxol-stabilized …; experiment: in vitro microtubule co-sedimentation of in vitro translated GFP fusions, western blot
Experimental: as §1

T1 sequence (P81947 whole entry, chain 1 of 2): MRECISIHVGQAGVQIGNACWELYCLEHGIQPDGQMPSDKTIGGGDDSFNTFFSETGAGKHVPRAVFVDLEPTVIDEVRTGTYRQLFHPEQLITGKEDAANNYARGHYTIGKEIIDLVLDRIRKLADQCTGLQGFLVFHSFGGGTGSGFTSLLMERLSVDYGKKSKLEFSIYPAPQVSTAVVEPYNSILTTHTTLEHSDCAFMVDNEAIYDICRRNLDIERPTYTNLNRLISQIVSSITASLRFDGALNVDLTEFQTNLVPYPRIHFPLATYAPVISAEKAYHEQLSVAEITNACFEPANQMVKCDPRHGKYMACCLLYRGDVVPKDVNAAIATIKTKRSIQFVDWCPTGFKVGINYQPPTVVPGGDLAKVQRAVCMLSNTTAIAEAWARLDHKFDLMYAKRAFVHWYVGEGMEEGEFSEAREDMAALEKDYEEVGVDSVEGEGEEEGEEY
T1 sequence (Q6B856 whole entry, chain 2 of 2): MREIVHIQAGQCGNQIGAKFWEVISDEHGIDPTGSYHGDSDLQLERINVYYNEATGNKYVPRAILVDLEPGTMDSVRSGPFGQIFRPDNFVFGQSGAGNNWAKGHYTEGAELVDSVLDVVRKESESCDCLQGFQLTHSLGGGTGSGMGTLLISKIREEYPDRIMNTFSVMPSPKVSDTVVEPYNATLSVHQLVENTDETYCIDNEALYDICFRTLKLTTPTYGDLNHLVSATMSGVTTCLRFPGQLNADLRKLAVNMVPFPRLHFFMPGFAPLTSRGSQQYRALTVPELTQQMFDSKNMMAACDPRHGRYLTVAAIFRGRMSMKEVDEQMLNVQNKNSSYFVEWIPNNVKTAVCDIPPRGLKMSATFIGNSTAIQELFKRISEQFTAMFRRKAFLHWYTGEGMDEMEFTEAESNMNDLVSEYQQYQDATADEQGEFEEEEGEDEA
microtubule network of cultured human cells (hTERT-RPE1, 293T), sequence (P68363 whole entry, chain 1 of 2, the tested form may be a part): as the sequence (P81947 whole entry, chain 1 of 2) above
microtubule network of cultured human cells (hTERT-RPE1, 293T), sequence (P07437 whole entry, chain 2 of 2, the tested form may be a part): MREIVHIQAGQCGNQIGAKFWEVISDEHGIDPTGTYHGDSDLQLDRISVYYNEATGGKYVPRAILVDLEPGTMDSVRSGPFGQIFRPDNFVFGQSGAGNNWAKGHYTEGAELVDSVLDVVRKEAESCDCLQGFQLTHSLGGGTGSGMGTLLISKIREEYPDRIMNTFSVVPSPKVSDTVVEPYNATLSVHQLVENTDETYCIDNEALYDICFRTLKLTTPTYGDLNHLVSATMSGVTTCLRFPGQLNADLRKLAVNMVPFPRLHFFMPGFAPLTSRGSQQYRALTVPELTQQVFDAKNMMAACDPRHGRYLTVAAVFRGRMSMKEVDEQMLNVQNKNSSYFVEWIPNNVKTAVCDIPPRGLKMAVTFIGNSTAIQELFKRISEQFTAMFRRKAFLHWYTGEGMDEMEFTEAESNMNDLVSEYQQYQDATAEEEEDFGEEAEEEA

- percent associated with microtubules [1]: < 50%
- percent of transfected cells with increased microtubule acetylation and bundling [2]: ~40%
- percent of transfected hTERT-RPE1 cells with a fibrillar localization pattern [2]: ~60%
B1: GFP fusion of CEP290 aa 1-1966 (other)
chain: MPPNINWKEIMKVDPDDLPRQEELADNLLISLSKVEVNELKSEKQENVIHLFRITQSLMKMKAQEVELALEEVEKAGEEQAKFENQLKTKVMKLENELEMAQQSAGGRDTRFLRNEICQLEKQLEQKDRELEDMEKELEKEKKVNEQLALRNEEAENENSKLRRENKRLKKKNEQLCQDIIDYQKQIDSQKETLLSRRGEDSDYRSQLSKKNYELIQYLDEIQTLTEANEKIEVQNQEMRKNLEESVQEMEKMTDEYNRMKAIVHQTDNVIDQLKKENDHYQLQVQELTDLLKSKNEEDDPIMVAVNAKVEEWKLILSSKDDEIIEYQQMLHNLREKLKNAQLDADKSNVMALQQGIQERDSQIKMLTEQVEQYTKEMEKNTCIIEDLKNELQRNKGASTLSQQTHMKIQSTLDILKEKTKEAERTAELAEADAREKDKELVEALKRLKDYESGVYGLEDAVVEIKNCKNQIKIRDREIEILTKEINKLELKISDFLDENEALRERVGLEPKTMIDLTEFRNSKHLKQQQYRAENQILLKEIESLEEERLDLKKKIRQMAQERGKRSATSGLTTEDLNLTENISQGDRISERKLDLLSLKNMSEAQSKNEFLSRELIEKERDLERSRTVIAKFQNKLKELVEENKQLEEGMKEILQAIKEMQKDPDVKGGETSLIIPSLERLVNAIESKNAEGIFDASLHLKAQVDQLTGRNEELRQELRESRKEAINYSQQLAKANLKIDHLEKETSLLRQSEGSNVVFKGIDLPDGIAPSSASIINSQNEYLIHLLQELENKEKKLKNLEDSLEDYNRKFAVIRHQQSLLYKEYLSEKETWKTESKTIKEEKRKLEDQVQQDAIKVKEYNNLLNALQMDSDEMKKILAENSRKITVLQVNEKSLIRQYTTLVELERQLRKENEKQKNELLSMEAEVCEKIGCLQRFKEMAIFKIAALQKVVDNSVSLSELELANKQYNELTAKYRDILQKDNMLVQRTSNLEHLECENISLKEQVESINKELEITKEKLHTIEQAWEQETKLGNESSMDKAKKSITNSDIVSISKKITMLEMKELNERQRAEHCQKMYEHLRTSLKQMEERNFELETKFAELTKINLDAQKVEQMLRDELADSVSKAVSDADRQRILELEKNEMELKVEVSKLREISDIARRQVEILNAQQQSRDKEVESLRMQLLDYQAQSDEKSLIAKLHQHNVSLQLSEATALGKLESITSKLQKMEAYNLRLEQKLDEKEQALYYARLEGRNRAKHLRQTIQSLRRQFSGALPLAQQEKFSKTMIQLQNDKLKIMQEMKNSQQEHRNMENKTLEMELKLKGLEELISTLKDTKGAQKVINWHMKIEELRLQELKLNRELVKDKEEIKYLNNIISEYERTISSLEEEIVQQNKFHEERQMAWDQREVDLERQLDIFDRQQNEILNAAQKFEEATGSIPDPSLPLPNQLEIALRKIKENIRIILETRATCKSLEEKLKEKESALRLAEQNILSRDKVINELRLRLPATAEREKLIAELGRKEMEPKSHHTLKIAHQTIANMQARLNQKEEVLKKYQRLLEKAREEQREIVKKHEEDLHILHHRLELQADSSLNKFKQTAWDLMKQSPTPVPTNKHFIRLAEMEQTVAEQDDSLSSLLVKLKKVSQDLERQREITELKVKEFENIKLQLQENHEDEVKKVKAEVEDLKYLLDQSQKESQCLKSELQAQKEANSRAPTTTMRNLVERLKSQLALKEKQQKALSRALLELRAEMTAAAEERIISATSQKEAHLNVQQIVDRHTRELKTQVEDLNENLLKLKEALKTSKNRENSLTDNLNDLNNELQKKQKAYNKILREKEEIDQENDELKRQIKRLTSGLQGKPLTDNKQSLIEELQRKVKKLENQLEGKVEEVDLKPMKEKNAKEELIRWEEGKKWQAKIEGIRNKLKEKEGEVFTLTKQLNTLKDLFAKADKEKLTLQRKLKT
notes: The text says only 'lacking the C-terminus'; also called truncation lacking the C-terminus; not shown: N-terminal GFP tag from pcDNA-DEST53 (Gateway)

- Kd [3]: ~100 nM
B2: 6×His tagged CEP290 truncation M (aa 1695-1966), recombinantly expressed and purified (other)
chain: DQSQKESQCLKSELQAQKEANSRAPTTTMRNLVERLKSQLALKEKQQKALSRALLELRAEMTAAAEERIISATSQKEAHLNVQQIVDRHTRELKTQVEDLNENLLKLKEALKTSKNRENSLTDNLNDLNNELQKKQKAYNKILREKEEIDQENDELKRQIKRLTSGLQGKPLTDNKQSLIEELQRKVKKLENQLEGKVEEVDLKPMKEKNAKEELIRWEEGKKWQAKIEGIRNKLKEKEGEVFTLTKQLNTLKDLFAKADKEKLTLQRKLKT
notes: Expressed in E. coli BL21(DE3)pLysS, purified on Ni-NTA; also called region M; CEP290 region M; not shown: N-terminal 6×His tag from pDest-527

- binding result [4]: no binding
B3: GFP-tagged "Deleted" CEP290 truncation (part of the microtubule binding region deleted in the rd16 mouse) (other)
chain: DQSQKESQCLKSELQAQKEANSRAPTTTMRNLVERLKSQLALKEKQQKALSRALLELRAEMTAAAEERIISATSQKEAHLNVQQIVDRHTRELKTQVEDLNENLLKLKEALKTSKNRENSLTDNLNDLNNELQKKQKAYNKILREKEEIDQENDELKRQIKRLTSGLQGKPLTDNKQSLIEELQRKVKKLENQLEGKVEEVDLKPMKEK
notes: not shown: N-terminal GFP tag from pcDNA-DEST53 (Gateway)
